In patent publication CN114437215A (SHANGHAI MAIJI BIOTECHNOLOGY CO LTD, dated 2022) one finds Kd, koff and kon data, which are given here for four molecules.

T1: 人CD38胞外段Flag标签蛋白 hCD38-ECD-Flag (human, UniProt P28907 43-300)
T1 construct: range 43-300; No linker between CD38 and the tag is stated; also called hCD38-Flag
T1 sequence: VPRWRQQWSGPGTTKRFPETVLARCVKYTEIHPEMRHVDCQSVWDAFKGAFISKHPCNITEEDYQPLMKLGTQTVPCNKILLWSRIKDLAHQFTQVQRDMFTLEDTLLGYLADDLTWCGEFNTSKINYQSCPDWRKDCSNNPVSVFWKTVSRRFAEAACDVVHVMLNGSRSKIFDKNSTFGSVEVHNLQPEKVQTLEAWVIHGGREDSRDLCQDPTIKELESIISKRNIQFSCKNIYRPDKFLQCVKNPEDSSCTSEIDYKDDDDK

T2: 食蟹猴CD38胞外段Flag标签蛋白 cyno-CD38-ECD-Flag (cynomolgus monkey, UniProt Q5VAN0 44-301)
T2 construct: range 44-301; No linker between CD38 and the tag is stated; also called cyno-CD38-Flag
T2 sequence: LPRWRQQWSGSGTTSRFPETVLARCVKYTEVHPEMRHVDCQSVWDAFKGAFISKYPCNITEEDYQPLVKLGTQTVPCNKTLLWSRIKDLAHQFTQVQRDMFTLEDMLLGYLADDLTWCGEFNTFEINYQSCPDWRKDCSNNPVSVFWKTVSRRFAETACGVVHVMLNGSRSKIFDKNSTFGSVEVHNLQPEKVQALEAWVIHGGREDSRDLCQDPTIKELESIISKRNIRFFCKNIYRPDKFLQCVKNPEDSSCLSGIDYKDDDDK

B1: 人源化抗人CD38单克隆抗体57H (antibody, human IgG1, kappa, V domains shown)
VH: EVQLVESGGGLVQPGGSLRLSCAASGFTFSSFGMHWVRQAPGKGLEWVAYIGGDSNIIYYADTVKGRFTISRDNSKNTLYLQMNSLRAEDTAVYYCAKSHDYTMDYWGQGTLVTVSS
VL: DIVMTQSPSSLAVSLGERVTITCKSSQSLLYSTNQKNYLAWFQQKPGQSPKLLIYWASTRESGVPDRFSGSGSGTDFTLTISSLQAEDVAVYYCQRYYNYPYTFGQGTKVEIKR
notes: also called 57号抗体的人源化抗体
B2: 人源化抗人CD38单克隆抗体105H (antibody, human IgG1, kappa, V domains shown)
VH: QVQLVQSGAEVKKPGASVKVSCKASGYTFTSYWMHWVRQAPGQGLEWIGHINPSSGYSEYSQKFKDRATLTADKSTSTAYMELSSLRSEDTAVYYCEIYYYVSRYVGDSWGQGTLVTVSS
VL: DIQMTQSPSSLSASVGDRVTITCRASQEISGYLSWLQQKPGKTIKRLIYAASTLDSGVPSRFSGSRSGSDFTLTISSLQPEDFATYYCLQYDSYPLTFGQGTKVEIKR
notes: Humanized IgG1; also called 105-Humanization; 105号抗体的人源化抗体
B3: 人源化抗人CD38单克隆抗体116H (antibody, human IgG1, kappa, V domains shown)
VH: QVTLKESGPALVKPTQTLTLTCTLSGFSLSTSRMGVGWIRQPPGKGLEWLAHIWWDDDKRYNPALKSRLTISKDTSSNQVFLKIASVDKEDTATYYCGRIEVGRGAWFAYWGQGTLVTVSS
VL: EIVLTQSPATLSLSPGERVSVTCKASQDVVTTVAWYQQKPGQAPRTLIYSASYRYSGVPARFSGSGSGTDFTLTISSLEPEDFAVYYCQQYYTYPFTFGQGTKVEIKR
notes: also called 116号抗体的人源化抗体
B4: 人源化抗人CD38单克隆抗体145H (antibody, human IgG1, kappa, V domains shown)
VH: QVQLVQSGAEVKKPGASVKVSCKASGYTFTNYLIDWVRQAPGQGLEWIGLINPGSGSTKYNEKFKGRVTLTADKSTSTAYMELSSLRSEDTAVYYCAKTGTLPYWGQGTLVTVSS
VL: DIQMTQSPSSLSASVGDRVTITCKASQNVGTSVAWYQQKPGKAPKLLIYSTSYRSSGVPSRFSGSGSGTDFTLTISSLQPEDFATYYCQQYGSYPLTFGQGTKVEIKR
notes: also called 145号抗体的人源化抗体

In the first test the target is T1, 人CD38胞外段Flag标签蛋白 hCD38-ECD-Flag. The test can be described thus: SPR, Biacore T200; antibody captured on Protein A CM5 chip, hCD38-Flag as analyte.
The term Kd denotes a measure of binding affinity in units of concentration. High values mean lower affinity, low ones higher affinity. What is called koff is a measure of how fast the partners let go of each other. Read a high koff as fast dissociation. The term kon denotes the second-order rate constant of association. Low values mean slow association, high ones fast association. On to B1, for which binding was characterised by a dissociation constant (Kd) of 0.382 nM, the koff came out at 0.000101 s⁻¹ and the kon amounted to 264000 M⁻¹ s⁻¹.

Regarding B2, the Kd was 32.8 nM, the koff was found to be 0.000975 s⁻¹ and the kon was 29800 M⁻¹ s⁻¹.

For B3, the Kd amounted to 0.065 nM, the koff came out at 9.53e-05 s⁻¹ and the kon stood at 1.47e+06 M⁻¹ s⁻¹.

In turn, B4 registered a Kd of 3.22 nM, a koff of 0.00198 s⁻¹ and a kon of 612000 M⁻¹ s⁻¹.

In another test the target is T2, 食蟹猴CD38胞外段Flag标签蛋白 cyno-CD38-ECD-Flag. As to the kind of experiment: SPR, Biacore T200; antibody captured on Protein A CM5 chip, cyno-CD38-Flag as analyte. A general note: SPR reads the build-up and loss of mass on a sensor chip optically.
As to B1, the dissociation constant (Kd) was found to be 1.68 nM, the koff was determined as 9.2e-05 s⁻¹ and the kon is 54900 M⁻¹ s⁻¹.

Consider B2, for which binding was put at a Kd of 3.4 nM, the koff worked out at 0.000208 s⁻¹ and the kon is 61100 M⁻¹ s⁻¹.

On to B3, for which the Kd came out at 0.405 nM, the koff was 0.000102 s⁻¹ and the kon turned out to be 251000 M⁻¹ s⁻¹.

As for B4, the Kd was found to be 40.2 nM, the koff stood at 0.00393 s⁻¹ and the kon amounted to 97800 M⁻¹ s⁻¹.
